According to the supplement of paper PMC10567573:

B1: TOR1AIP2 (parent)
chain: AGQEGEDTLRRRLLAPEAGSHPQQ
B2: VPS39 (parent)
chain: LRLENNHCHIEESEHVLKKAHKYS

Variants of: B1
Test: protein stability index of a GFP-peptide fusion (GPS, HEK-293T) (PSI 1-6); higher = more stable
Conditions: c terminus: a fixed tail appended
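Further: lentivirally expressed fusions sorted by FACS into six bins by GFP to DsRed ratio, PSI derived from sequencing read proportions per bin multiplied by bin number.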

Protein stability index, by site and new letter:
D7: T 3.15; R 1.73; K 2.57; L 2.73; M 1.88; F 2.47; G 2.12; Y 2.41; E 2.56; S 2.04; V 1.76; C 1.54; N 1.97; Q 2.39; P 4.24; I 1.76; H 2.73
L13: C 3.48; A 3.81; W 3.21; G 5.55; M 2.22; D 4.91; T 5.03; R 5.04; H 4.82; Q 5.15; K 5.21; F 3.32; N 5.55; V 3.31; P 5.6; E 5.53; Y 4.14; S 5.22; I 1.82
L14: N 5.56; M 4.6; S 5.63; A 5.73; F 4.25; P 5.93; Y 4.5; W 4.69; V 5.37; I 5.06; K 5.51; D 5.59; T 5.58; H 5.5; E 5.37; G 5.21; R 5.17; Q 5.68; C 4.91
T8: K 3.24; F 3.06; L 2.28; S 2.03; E 2.79; G 2.93; C 2.42; R 2.71; A 2.41; V 3.16; Q 2.81; Y 3.17; H 3.12; N 1.67; M 2.34; P 3.37; D 3.21; W 1.5; I 2.17
E4: S 2.31; I 1.74; T 2.15; M 2.05; Q 2.17; P 1.61; D 2.02; G 2.21; W 2.35; L 1.81; Y 1.72; K 1.85; F 1.79; R 1.29; V 2.79; N 1.65; C 2.16; H 1.79
G2: C 1.6; K 3.32; Q 1.64; F 2.99; A 4.25; N 3.23; S 2.71; Y 2.12; M 1.55; V 1.67; E 2.74; D 5.64; P 1.51; R 2.91; I 2.19; W 2.45; H 3.58
A15: C 1.34; W 4.49; S 3; M 4.55; G 4.34; R 5.03; L 5.02; E 5.18; Y 4.12; P 5.46; D 5.39; F 4.87; Q 4.9; N 4.55; K 5.44; I 4.48; H 5.18; V 5.17; T 3.68
E17: A 4.22
P16: T 4.45; D 5.74; I 5.07; W 3.99; H 4.5; L 5.32; E 5.45; G 5.51; Q 5.21; V 4.63; Y 4.86; N 5.24; R 4.7; S 5.43; F 4.52; M 4.81; C 4.47; K 5.01; A 5.48
Q3: L 2.47; V 2.27; Y 1.37; G 2.65; R 1.09; D 3.76; N 1.82; S 2.31; K 2.02; M 1.74; I 1.55; W 2.14; F 2.05; T 2.47; E 3.17; A 2.22; C 1.34; P 2.92
A1: E 4.54; K 2.54; N 2.5; T 2.11; H 3.53; R 2.29; Y 2.26; Q 2.57; I 4.08; G 3.25; W 3.19; L 2; S 1.4; F 1.83; D 4.05; P 4.86; V 3.31
R10: C 5.64; T 5.17; P 5.19; F 4.51; Q 5.08; M 4.88; S 5.29; K 5.06; L 4.82; Y 4.53; W 4.37; I 4.62; E 5.4; H 5.31; G 5.17; N 5.29; V 4.26; D 5.38; A 4.84
E6: M 2.33; N 3.08; K 1.95; R 3.06; T 2.08; F 3.25; L 1.94; A 2.25; I 2.13; S 2.59; V 2.53; H 2.32; Y 2.5; W 2.63; P 2.88; G 1.73; Q 2.37; D 2.79
R11: W 2.12; V 3.27; E 4.6; Q 3.78; F 2.02; K 2.81; G 5.29; P 5.65; I 2.85; D 5.21; S 4.4; N 4.6; L 2.85; T 3.98; H 2.4; Y 1.16; C 3.77; M 2.22
R12: G 4.97; H 3.29; F 1.83; V 2.47; C 2.51; S 3.03; I 1.93; P 5.19; T 2.35; E 4.75; Y 2.3; D 4.7; L 2.56; M 1.8; N 3.89; A 2.65; Q 2.87; K 3.55
L9: D 4.17; E 4.58; W 2.41; K 3.87; F 3.61; Q 4.56; S 5.06; N 4.61; H 4.71; P 4.27; C 4.29; R 4.45; M 3.69; I 2.33; V 3.8; Y 3.67; A 4.4; T 4.59; G 4.89
G5: D 3.43; N 3.27; W 1.35; A 2.44; M 1.97; S 2.03; L 2.49; P 2.91; T 2.72; V 2.55; E 2.72; F 1.83; K 2.46; Y 1.84; H 2.08; R 2.46; Q 2.99; I 2.72; C 3.6

Variants of: B2
Test: as above
Conditions: c terminus: a fixed tail appended

Protein stability index of substitutions, site by site:
K22: Y 2.55; W 1.84
S24: V 1.83; L 2.08; P 1.74; M 2.18; G 2.84; C 2.17; Y 2.28; W 2.24; I 2.04; H 2.65; A 1.29; Q 1.92; K 2.09; F 2.37; E 3.82; D 2.25; T 2.07; R 2.38; N 2.3
Y23: V 2.05; L 2.7; R 2.25; D 2.15; A 2.76; N 3.05; C 2.25; K 2.21; M 2.17; H 3.13; Q 2.45; T 2.4; G 2.75; F 2.28; I 3.14; S 2.77; P 2.56; E 3.12; W 1.72
